Literature values, collected in patent US20260109963A1, “COMPOSITIONS, SYSTEMS, AND METHODS FOR REDUCING ADIPOSE TISSUE” (Oisin Biotechnologies, Inc., priority 2023, published 2026).

System: Heart
Conditions: almost completely abrogated after IV delivery

B1: miR1d: miRNA/target site de-targeting heart & skeletal muscle (nucleic acid)
chain: GGCCGGCCAATACATACTTCTTTACATTCCACGATAATACATACTTCTTTACATTCCAACCGGTAATACATACTTCTTTACATTCCATCACAATACATACTTCTTTACATTCCAGGCCGGCC
modifications: listed as DNA, chemistry not fully specified; the letters are possibly those of the target site
notes: miRNA/target site de-targeting heart & skeletal muscle
transgene expression in heart (in words): Transgene expression in heart almost
